How the values were obtained:
[1] = target: cynomolgus monkey PCSK9, V5-6xHis tagged (cynomolgus monkey); test: KinExA solution equilibrium
[2] = target: cynomolgus monkey PCSK9, V5-6xHis tagged (cynomolgus monkey); test: BIAcore SPR, antibody amine-coupled to CM5 chip, PCSK9 as analyte, pH 7.4
[3] = target: cynomolgus monkey PCSK9, V5-6xHis tagged (cynomolgus monkey); test: BIAcore solution equilibrium binding assay, free PCSK9 measured on immobilized 21B12

Binder | Kd [1] [pM] | Kd [2] [pM] | Kd [3] [pM]
16F12 human IgG4 (antibody, V domains shown) VH: QVHLVESGGGVVQPGRSLRLSCAASGFTFNSFGMHWVRQAPGKGLEWVALIWSDGSDEYYADSVKGRFTISRDNSKNTLYLQMNSLRAEDTAVYYCARAIAALYYYYGMDVWGQGTTVTVSS VL: QSVLTQPPSVSAAPGQKVTISCSGSSSNIGNNFVSWYQQLPGTAPKLLIYDYNKRPSGIPDRFSGSKSGTSATLGITGLQTGDEADYYCGTWDSSLSAYVFGTGTRVTVLQ | 16 | 870 | –
21B12 human IgG4 (from hybridoma) (antibody, V domains shown) VH: QVQLVQSGAEVKKPGASVKVSCKASGYTLTSYGISWVRQAPGQGLEWMGWVSFYNGNTNYAQKLQGRGTMTTDPSTSTAYMELRSLRSDDTAVYYCARGYGMDVWGQGTTVTVSS VL: QSALTQPASVSGSPGQSITISCTGTSSDVGGYNSVSWYQQHPGKAPKLMIYEVSNRPSGVSNRFSGSKSGNTASLTISGLQAEDEADYYCNSYTSTSMVFGGGTKLTVLQ | – | 360 | 11
